Consider two substances from article PMC4834553.

Assay [1] has as its target Vn^80–396 (human). Kind of assay: BLI; Octet RED96; Vn 80–396 immobilised on AR2G sensors by amine coupling at pH 5; KatA as analyte, 1 in 3 dilution series (50–0.055 nM) in PBS, 0.05% Tween20; KD from steady state analysis. Background: In BLI a coated tip is dipped into the sample, and binding shifts an interference pattern.
Assay [2] deals with catalase KatA of H. pylori KR497, endogenous (Helicobacter pylori (endogenous in strain KR497)) (UniProt P77872). The experiment in a line: flow cytometry on cells; whole H. pylori (wt and ΔkatA) incubated with 3 μg human serum Vn per 10^6 cells, 1 h, 37 °C, PBS 1% BSA; sheep anti-human Vn Ab and FITC-conjugated anti-sheep pAb. In general terms: Flow cytometry measures light scatter and fluorescence of single cells or particles in a stream.

The target in assay [3] is catalase KatA of H. pylori KR697, endogenous (Helicobacter pylori (endogenous in strain KR697)) (UniProt P77872). The description is as above.
Assay [4] addresses catalase KatA of H. pylori CCUG18943, endogenous (Helicobacter pylori (endogenous in strain CCUG18943)) (UniProt P77872). The assay is described as above.

As for “full length recombinant KatA (from UniProt P77872 1-505)”, in assay [1], the equilibrium dissociation constant (Kd) – broadly, the concentration at which binding is half-saturated – amounted to 1 nM; the koff (in general, the rate constant with which the complex falls apart) was 0.0003 s⁻¹; the kon (commonly the second-order rate constant of association) worked out at 1e+06 M⁻¹ s⁻¹.

Consider “human serum vitronectin (Vn), activated, purified from serum (natural protein)”, for which the reduction of Vn binding to whole bacteria on deletion of katA was found to be 50% in assay [2], 50% in assay [3] and 21% in assay [4].
